Laboratory results from paper PMC10047488.

Key:
[1] = molecular target: Gal4 DNA-binding domain fusion of HSD11B1L-181 fragment H2 (amino acids 92-181) (human); test: two-hybrid; yeast two-hybrid based growth assay: diploids spotted in serial dilution on SD/-Leu/-Trp or SD/-Ade/-His/-Leu/-Trp plates with 0, 1, 5 or 10 uM PMN (peiminine), 30 °C, 3 days; and OD600 in liquid selective medium every 12 h for 48 h
[2] = molecular target: Gal4 DNA-binding domain fusion of parkin fragment P2 (amino acids 141-326) (human) (UniProt O60260); test: as above

Sequence of Gal4 DNA-binding domain fusion of HSD11B1L-181 fragment H2 (amino acids 92-181) (human) (Q7Z5J1 92-181): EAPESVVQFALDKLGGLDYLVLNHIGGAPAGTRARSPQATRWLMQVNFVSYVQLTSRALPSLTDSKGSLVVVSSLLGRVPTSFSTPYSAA

Substance	reduction of the growth rate in selective medium after 48 h, 10 mM PMN group against the DMSO group [1]	reduction of the growth rate in selective medium after 48 h, 10 uM PMN group against the DMSO group [2]
Gal4 activation domain fusion of parkin fragment P2 (amino acids 141-326) (from UniProt O60260-1 141-326) (domain or fragment)	93%	
Gal4 activation domain fusion of HSD11B1L-181 fragment H2 (amino acids 92-181) (domain or fragment)		95%
